Measured values reported in the supplement of paper PMC11246515.
± gives the standard deviation of the averaged measurements.

Experiment: total protein half-life in vivo (active degradation + dilution); higher = more stable protein
[1] = E. coli NCM3722 delta-clpP delta-lon delta-hslV, growth: N-lim chemostat, doubling time 6 h
[2] = E. coli NCM3722 delta-clpP, growth: N-lim chemostat, doubling time 6 h
[3] = E. coli NCM3722 delta-hslV, growth: N-lim chemostat, doubling time 6 h
[4] = E. coli NCM3722 delta-lon, growth: N-lim chemostat, doubling time 6 h
[5] = E. coli NCM3722 delta-smpB, growth: N-lim chemostat, doubling time 6 h
[6] = wild type E. coli NCM3722, growth: C-lim chemostat, doubling time 3 h
[7] = wild type E. coli NCM3722, growth: C-lim chemostat, doubling time 6 h
[8] = wild type E. coli NCM3722, growth: C-lim chemostat, doubling time 12 h
[9] = wild type E. coli NCM3722, growth: N-lim chemostat, doubling time 6 h
[10] = wild type E. coli NCM3722, growth: N-lim chemostat, doubling time 12 h
[11] = wild type E. coli NCM3722, growth: P-lim chemostat, doubling time 6 h
[12] = wild type E. coli NCM3722, growth: P-lim chemostat, doubling time 12 h

Sequence	total protein half-life in vivo [1] [h]	total protein half-life in vivo [2] [h]	total protein half-life in vivo [3] [h]	total protein half-life in vivo [4] [h]	total protein half-life in vivo [5] [h]	total protein half-life in vivo [6] [h]	total protein half-life in vivo [7] [h]	total protein half-life in vivo [8] [h]	total protein half-life in vivo [9] [h]	total protein half-life in vivo [10] [h]	total protein half-life in vivo [11] [h]	total protein half-life in vivo [12] [h]
MVPVVALVGRPNVGKSTLFNRLTRTRDALVADFPGLTRDRKYGRAEIEGREFICIDTGGIDGTEDGVETRMAEQSLLAIEEADVVLFMVDARAGLMPADEAIAKHLRSREKPTFLVANKTDGLDPDQAVVDFYSLGLGEIYPIAASHGRGVLSLLEHVLLPWMEDLAPQEEVDEDAEYWAQFEAEENGEEEEEDDFDPQSLPIKLAIVGRPNVGKSTLTNRILGEERVVVYDMPGTTRDSIYIPMERDGREYVLIDTAGVRKRGKITDAVEKFSVIKTLQAIEDANVVMLVIDAREGISDQDLSLLGFILNSGRSLVIVVNKWDGLSQEVKEQVKETLDFRLGFIDFARVHFISALHGSGVGNLFESVREAYDSSTRRVGTSMLTRIMTMAVEDHQPPLVRGRRVKLKYAHAGGYNPPIVVIHGNQVKDLPDSYKRYLMNYFRKSLDVMGSPIRIQFKEGENPYANKRNTLTPTQMRKRKRLMKHIKKNK [P0A6P5]	5.18 ± 0.36	5.53 ± 0.68	4.51 ± 0.067	4.88 ± 0.11	4.59 ± 0.29	3.2 ± 0.2	5.55 ± 0.11	10.3 ± 0.65	4.6 ± 0.16	7.38 ± 0.25	5.43 ± 0.67	10.8 ± 0.39
MTIKNKMLLGALLLVTSAAWAAPATAGSTNTSGISKYELSSFIADFKHFKPGDTVPEMYRTDEYNIKQWQLRNLPAPDAGTHWTYMGGAYVLISDTDGKIIKAYDGEIFYHR	5.04 ± 0.4	5.973 ± 0.043	6.26 ± 0.2	5.84 ± 0.39	6.59 ± 0.59	3.09 ± 0.24	5.37 ± 0.16	8.3 ± 1.4	6.03 ± 0.036	11.5 ± 0.32	5.446 ± 0.049	13.4 ± 2.4
MKKKILAFGLISALFCSTPAMADMNRTTKGALLGAGVGLLTGNGVNGVLKGAAVGAGVGAVTEKGRDGKNARKGAKVGAAVGAVTGVLTGNGLEGAIKGAVIGGTGGAILGKMK [Q7DFV3]	–	–	1.46 ± 0.28	–	1.39	1.42 ± 0.11	1.67	–	1.78 ± 0.36	1.87	2.752 ± 0.007	5.14 ± 0.75
MADITLISGSTLGGAEYVAEHLAEKLEEAGFTTETLHGPLLEDLPASGIWLVISSTHGAGDIPDNLSPFYEALQEQKPDLSAVRFGAIGIGSREYDTFCGAIDKLEAELKNSGAKQTGETLKINILDHDIPEDPAEEWLGSWVNLLK	3.22 ± 0.1	2.99	2.93 ± 0.18	3.47 ± 0.17	2.78 ± 0.15	2.86 ± 0.48	4.66 ± 0.56	9.28 ± 2	2.67 ± 0.13	3.68 ± 0.24	5.07 ± 0.09	9.52 ± 0.099
MRVLVVEDNALLRHHLKVQIQDAGHQVDDAEDAKEADYYLNEHIPDIAIVDLGLPDEDGLSLIRRWRSNDVSLPILVLTARESWQDKVEVLSAGADDYVTKPFHIEEVMARMQALMRRNSGLASQVISLPPFQVDLSRRELSINDEVIKLTAFEYTIMETLIRNNGKVVSKDSLMLQLYPDAELRESHTIDVLMGRLRKKIQAQYPQEVITTVRGQGYLFELR	4.69 ± 0.2	4.2 ± 0.46	4.056 ± 0.01	4.7 ± 0.21	4.19 ± 0.29	2.85 ± 0.13	5.04 ± 0.12	8.69 ± 1	4.33 ± 0.29	7.55 ± 0.24	5.134 ± 0.051	8.98 ± 0.26
MNKNRGFTPLAVVLMLSGSLALTGCDDKQAQQGGQQMPAVGVVTVKTEPLQITTELPGRTSAYRIAEVRPQVSGIILKRNFKEGSDIEAGVSLYQIDPATYQATYDSAKGDLAKAQAAANIAQLTVNRYQKLLGTQYISKQEYDQALADAQQANAAVTAAKAAVETARINLAYTKVTSPISGRIGKSNVTEGALVQNGQATALATVQQLDPIYVDVTQSSNDFLRLKQELANGTLKQENGKAKVSLITSDGIKFPQDGTLEFSDVTVDQTTGSITLRAIFPNPDHTLLPGMFVRARLEEGLNPNAILVPQQGVTRTPRGDATVLVVGADDKVETRPIVASQAIGDKWLVTEGLKAGDRVVISGLQKVRPGVQVKAQEVTADNNQQAASGAQPEQSKS [P0AE06]	5.95 ± 0.32	–	6.3 ± 0.28	6.62 ± 0.54	5.93 ± 0.21	2.921 ± 0.024	5.84 ± 0.46	12.1 ± 0.26	6.134 ± 0.05	13.33 ± 0.11	5.814 ± 0.041	12.5 ± 0.88
